Measurements: US20190091296

Assays:
[1] = biological target: Comparator: GLP1 analogue having the amino acid sequence characteristics of LY2189265 fused to hIgG4 Fc domain
Sequence of Comparator: GLP1 analogue having the amino acid sequence characteristics of LY2189265 fused to hIgG4 Fc domain (chain, as listed by the source): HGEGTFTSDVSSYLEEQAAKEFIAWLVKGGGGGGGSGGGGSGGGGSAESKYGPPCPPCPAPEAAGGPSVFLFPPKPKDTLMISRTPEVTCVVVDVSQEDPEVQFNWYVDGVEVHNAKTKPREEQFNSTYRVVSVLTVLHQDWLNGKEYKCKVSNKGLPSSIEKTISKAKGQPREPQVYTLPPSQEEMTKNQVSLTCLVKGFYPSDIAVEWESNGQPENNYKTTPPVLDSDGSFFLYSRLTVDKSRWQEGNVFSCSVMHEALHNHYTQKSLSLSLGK

B1: recombinant human DPP4 (protein)
chain: SRKTYTLTDYLKNTYRLKLYSLRWISDHEYLYKQENNILVFNAEYGNSSVFLENSTFDEFGHSINDYSISPDGQFILLEYNYVKQWRHSYTASYDIYDLNKRQLITEERIPNNTQWVTWSPVGHKLAYVWNNDIYVKIEPNLPSYRITWTGKEDIIYNGITDWVYEEEVFSAYSALWWSPNGTFLAYAQFNDTEVPLIEYSFYSDESLQYPKTVRVPYPKAGAVNPTVKFFVVNTDSLSSVTNATSIQITAPASMLIGDHYLCDVTWATQERISLQWLRRIQNYSVMDICDYDESSGRWNCLVARQHIEMSTTGWVGRFRPSEPHFTLDGNSFYKIISNEEGYRHICYFQIDKKDCTFITKGTWEVIGIEALTSDYLYYISNEYKGMPGGRNLYKIQLSDYTKVTCLSCELNPERCQYYSVSFSKEAKYYQLRCSGPGLPLYTLHSSVNDKGLRVLEDNSALDKMLQNVQMPSKKLDFIILNETKFWYQMILPPHFDKSKKYPLLLDVYAGPCSQKADTVFRLNWATYLASTENIIVASFDGRGSGYQGDKIMHAINRRLGTFEVEDQIEAARQFSKMGFVDNKRIAIWGWSYGGYVTSMVLGSGSGVFKCGIAVAPVSRWEYYDSVYTERYMGLPTPEDNLDHYRNSTVMSRAENFKQVEYLLIHGTADDNVHFQQSAQISKALVDVGVDFQAMWYTDEDHGIASSTAHQHIYTHMSHFIKQCFSLP
Cleavage % after 4 hours [1]: 4%
Cleavage % after 72 hours [1]: 41%
Cleavage % after 4 hours (Q-GLP1-hFc): 0%
Cleavage % after 72 hours (Q-GLP1-hFc): 0%
